Measured values taken from patent US20120039802A1 (published 2012).

Experiments:
[1] = target: T1, cMet-Fc fusion protein (extracellular domain of the cMet receptor expressed as an Fc-fusion protein) (human, UniProt P08581 25-932); test: phage ELISA on cMet-Fc, competitor HGF 100 ng/mL
T1 construct: extracellular domain; also called soluble cMet-Fc-fusion protein; soluble cMet receptor; not shown: Fc part
Description: (§1) These assays were conducted using the peptide-displaying phage discovered from the initial selection and screening campaigns using the first generation peptide libraries. Briefly, 96-well plates were coated overnight at 4 C with 0.5 μg/mL of cMet-Fc fusion protein or TRAIL-Fc fusion protein (background). The plates were blocked for 2 hours at 37 C with 3% BSA in PBST. […] This was followed by an addition of 30 μL of peptide-displaying phage overnight culture to each well. The plates were incubated for 2 hours at room temperature, washed with PBST and cMet-binding peptide-displaying phage was detected using an HRP-conjugated anti-M13 antibody.

[2] = target: T1, cMet-Fc fusion protein (extracellular …); test: phage ELISA on cMet-Fc, competitor HGF 500 ng/mL
Description: as §1

[3] = target: T2, human cMet expressed on 3T3 cells (human, UniProt P08581 25-1390); test: whole cell phage ELISA, 3T3 human cMet vs 3T3
T2 construct: whole, on cells; cells fixed with glutaraldehyde; also called cell surface-expressed human cMet; 3T3 cells that over-express human cMet
T2 sequence (P08581 25-1390): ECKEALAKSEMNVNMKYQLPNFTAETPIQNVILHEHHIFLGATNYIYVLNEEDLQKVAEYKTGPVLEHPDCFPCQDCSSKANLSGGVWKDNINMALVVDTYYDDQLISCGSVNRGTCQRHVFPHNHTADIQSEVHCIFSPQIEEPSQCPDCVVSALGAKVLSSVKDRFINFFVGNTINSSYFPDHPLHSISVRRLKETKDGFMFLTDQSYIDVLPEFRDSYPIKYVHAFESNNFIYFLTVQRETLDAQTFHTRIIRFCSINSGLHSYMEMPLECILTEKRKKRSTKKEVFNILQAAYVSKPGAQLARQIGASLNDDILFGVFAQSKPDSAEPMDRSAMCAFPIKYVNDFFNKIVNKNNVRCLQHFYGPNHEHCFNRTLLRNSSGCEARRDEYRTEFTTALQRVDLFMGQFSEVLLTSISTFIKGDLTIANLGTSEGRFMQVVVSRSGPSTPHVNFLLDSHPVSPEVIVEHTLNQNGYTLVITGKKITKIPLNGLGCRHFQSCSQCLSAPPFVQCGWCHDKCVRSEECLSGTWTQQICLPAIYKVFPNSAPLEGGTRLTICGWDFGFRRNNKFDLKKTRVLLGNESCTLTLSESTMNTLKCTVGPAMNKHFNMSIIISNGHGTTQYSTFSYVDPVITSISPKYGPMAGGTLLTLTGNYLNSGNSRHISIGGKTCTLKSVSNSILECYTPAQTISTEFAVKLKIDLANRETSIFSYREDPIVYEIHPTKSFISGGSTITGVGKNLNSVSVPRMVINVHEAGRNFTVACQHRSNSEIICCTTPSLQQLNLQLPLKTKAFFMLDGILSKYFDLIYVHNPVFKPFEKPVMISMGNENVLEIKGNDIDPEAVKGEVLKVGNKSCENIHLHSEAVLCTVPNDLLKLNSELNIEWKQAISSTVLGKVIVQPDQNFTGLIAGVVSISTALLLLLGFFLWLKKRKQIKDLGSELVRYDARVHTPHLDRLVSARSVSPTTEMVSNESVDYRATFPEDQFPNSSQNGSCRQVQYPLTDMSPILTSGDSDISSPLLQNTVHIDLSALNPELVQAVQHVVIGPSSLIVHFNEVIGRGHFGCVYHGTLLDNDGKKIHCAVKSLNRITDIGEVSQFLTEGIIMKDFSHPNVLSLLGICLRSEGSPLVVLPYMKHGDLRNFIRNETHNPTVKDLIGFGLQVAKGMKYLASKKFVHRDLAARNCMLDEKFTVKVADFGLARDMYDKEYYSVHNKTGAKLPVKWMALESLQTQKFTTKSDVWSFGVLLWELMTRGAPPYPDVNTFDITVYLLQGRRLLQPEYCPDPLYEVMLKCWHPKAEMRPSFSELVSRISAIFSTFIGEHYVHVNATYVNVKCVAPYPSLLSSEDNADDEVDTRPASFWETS
Description: Whole cell ELISAs were performed using 3T3 cells that over-express human cMet. […] Briefly, 96-well plates were seeded with 10⁵ cells per well. The plates were centrifuged for 5 minutes at 1600 rpm to pellet the cells. The resulting cell layer was fixed with 0.1% (v/v) glutaraldehyde for 12 minutes at 37 C. […] Peptide-displaying phage also were blocked in the above solution for 1 hour at 37 C. 100 μL of blocked phage was then added to each well and the plates were incubated for 1 hour at room temperature. The plates were washed with PBST. cMet-binding peptide-displaying phage were detected using an HRP-conjugated anti-M13 antibody.

[4] = target: T1, cMet-Fc fusion protein (extracellular …); test: phage ELISA, cMet-Fc vs TRAIL-Fc
Description: Protein phage ELISAs using peptide-displaying phage isolates from the various selection campaigns were performed to determine specificity of the peptides for cMet versus an unrelated Fc-fusion protein (TRAIL-Fe). Briefly, 384-well plates were coated overnight at 4 C with 0.5 μg/mL of cMet-Fc fusion protein or TRAIL-Fc fusion protein (background). The plates were blocked for 2 hours 37 C with 3% (w/v) BSA in PBS containing 0.05% (v/v) Tween-20 (PBST). The plates were washed with PBST and 100 μL of peptide-displaying phage were added to each well. The plates were incubated for 2 hours at room temperature and washed with PBST. cMet-binding peptide-displaying phage were detected using an HRP-conjugated anti-M13 antibody.

T1 sequence (P08581 25-932): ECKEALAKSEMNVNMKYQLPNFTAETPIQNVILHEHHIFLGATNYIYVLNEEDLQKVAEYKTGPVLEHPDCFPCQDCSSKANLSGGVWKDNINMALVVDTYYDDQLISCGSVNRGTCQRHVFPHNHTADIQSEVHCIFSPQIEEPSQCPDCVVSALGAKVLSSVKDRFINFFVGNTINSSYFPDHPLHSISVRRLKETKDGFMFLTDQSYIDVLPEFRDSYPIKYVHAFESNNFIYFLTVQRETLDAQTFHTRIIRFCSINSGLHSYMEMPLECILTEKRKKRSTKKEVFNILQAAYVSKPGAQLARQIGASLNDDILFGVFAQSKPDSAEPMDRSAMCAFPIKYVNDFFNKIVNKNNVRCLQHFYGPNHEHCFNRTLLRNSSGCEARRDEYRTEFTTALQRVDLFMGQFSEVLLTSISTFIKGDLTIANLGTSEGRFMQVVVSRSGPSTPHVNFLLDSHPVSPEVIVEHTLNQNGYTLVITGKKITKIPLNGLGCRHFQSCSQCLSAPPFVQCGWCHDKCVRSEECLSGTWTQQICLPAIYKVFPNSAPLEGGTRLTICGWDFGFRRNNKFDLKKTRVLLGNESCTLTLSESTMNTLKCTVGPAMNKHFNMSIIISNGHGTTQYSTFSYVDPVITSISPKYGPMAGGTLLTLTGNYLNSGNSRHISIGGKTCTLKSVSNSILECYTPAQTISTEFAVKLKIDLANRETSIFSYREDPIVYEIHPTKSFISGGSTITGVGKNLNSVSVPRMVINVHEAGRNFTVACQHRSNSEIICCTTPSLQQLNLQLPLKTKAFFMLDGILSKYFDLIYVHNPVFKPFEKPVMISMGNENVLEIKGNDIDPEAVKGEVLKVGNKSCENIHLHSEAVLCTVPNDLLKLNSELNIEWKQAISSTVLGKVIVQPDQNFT

Row | Binder | % of binding in the absence of HGF [1] [%] | % of binding in the absence of HGF [2] [%] | WC ELISA (fold over background) [3] [fold] | Protein ELISA (fold over background) [4] [fold]
1 | AGHTICQHKALGCPANGT [465-C07 peptide-displaying phage (SEQ ID NO: 041)] | 102 | 138 | 1.27 | 3.1
2 | GSSHLCNPEFCHFTAP [465-D09 peptide-displaying phage (SEQ ID NO: 003)] | 90 | 70 | 1.3 | 3.2
3 | GSPEMCMMFPFLYPCNHHAP [548-F07 peptide-displaying phage (SEQ ID NO: 369)] | – | 37 | – | –
4 | AGIWFCNNEEKSCWAYGT [471-A11 peptide-displaying phage (SEQ ID NO: 040)] | 85 | 80 | 1.37 | 3
5 | AGLLGCWDMPMECTGEGT [465-B11 peptide-displaying phage (SEQ ID NO: 036)] | 97 | 89 | 1.27 | 3.6
6 | AGKYMCEGFEWFCEMWGT [442-E08 peptide-displaying phage (SEQ ID NO: 037)] | 81 | 75 | 1.43 | 4.1
7 | AGPLFCFEWPSLCHWGGT [448-H02 peptide-displaying phage (SEQ ID NO: 033)] | 113 | 92 | 1.43 | 3.8
8 | GDGFLCRWENGWCEFWDP [545-E08 peptide-displaying phage (SEQ ID NO: 047)] | 81 | 57 | 1.3 | 4.7
9 | AGQMWCAEKNSKCYQWGT [465-D12 peptide-displaying phage (SEQ ID NO: 030)] | 34 | 0 | 1.27 | 3.2
10 | AGKTVCQKWESVCSGMGT [465-C11 peptide-displaying phage (SEQ ID NO: 038)] | 41 | 4 | 1.3 | 3.1
11 | AGHFECPKHQYMCDMPGT [465-D04 peptide-displaying phage (SEQ ID NO: 042)] | 77 | 31 | 1.23 | 3.1
12 | AGTIRCNLAMMVCMFEGT [444-B08 peptide-displaying phage (SEQ ID NO: 028)] | 111 | 93 | 1.43 | 3.6
13 | AGQAVCEWGPFWCQMQGT [470-A02 peptide-displaying phage (SEQ ID NO: 031)] | 78 | 62 | 1.3 | 3.2
14 | GSMLMCELWWCRFLAP [569-H10 peptide-displaying phage (SEQ ID NO: 004)] | 98 | 83 | 1.27 | 3.4
15 | AGPYSCHSESHDCKLMGT [465-C01 peptide-displaying phage (SEQ ID NO: 032)] | 267 | 23 | 1.27 | 3.2
16 | AGFWDCGWMMQDCHMHGT [470-C02 peptide-displaying phage (SEQ ID NO: 045)] | 340 | 227 | 1.33 | 3.9

Row | Binder | % of binding in the absence of HGF [1] [%] | % of binding in the absence of HGF [2] [%] | WC ELISA (fold over background) [3] [fold] | Protein ELISA (fold over background) [4] [fold]
17 | GSWRFCGGEYSFQVCQDVAP [545-C02 peptide-displaying phage (SEQ ID NO: 365)] | – | 31 | – | –
18 | AGSIQCKGPPWFSCAMYGT [325-H05 peptide-displaying phage (SEQ ID NO: 048)] | 41 | 32 | 1.47 | 15.9
19 | AGMDFCEGFWFLCIGNAT [571-C11 peptide-displaying phage (SEQ ID NO: 035)] | 107 | 72 | 1.23 | 3.5
20 | AGWTWCDLSMMSCIFHGT [573-E07 peptide-displaying phage (SEQ ID NO: 025)] | 77 | 82 | 1.37 | 3.2
21 | AGETVCYWLNGWFCVDDGT [274-B07 peptide-displaying phage (SEQ ID NO: 073)] | – | 296 | 1.1 | 7.8
22 | GSHHTCLDGFAGWRCTEVAP [546-E02 peptide-displaying phage (SEQ ID NO: 366)] | 74 | – | – | –
23 | AGVTNCNLSTMFCFLHGT [465-F08 peptide-displaying phage (SEQ ID NO: 026)] | 68 | 116 | 1.3 | 3.8
24 | AGGNWCSFYEELCEWLGT [445-E04 peptide-displaying phage (SEQ ID NO: 043)] | 127 | 102 | 1.37 | 4.2
25 | AGNLPCHWNMSVCDHQGT [465-D01 peptide-displaying phage (SEQ ID NO: 034)] | 235 | 134 | 1.3 | 3.3
26 | ADAWMCEYFQWNCGDKGT [458-B05 peptide-displaying phage (SEQ ID NO: 046)] | 201 | 247 | 1.33 | 4.5
27 | AGTLSCSEEYKSCQLQGT [465-E09 peptide-displaying phage (SEQ ID NO: 027)] | 60 | 77 | 1.3 | 3.6
28 | AGGHWCLELKHLCPPYGT [465-B06 peptide-displaying phage (SEQ ID NO: 044)] | 89 | 57 | 1.23 | 4.1
29 | GSLIFCPYGECMMYAP [470-E11 peptide-displaying phage (SEQ ID NO: 005)] | 55 | 127 | 1.33 | 3.5
30 | AGKQWCVVWEETCDQLGT [465-F10 peptide-displaying phage (SEQ ID NO: 039)] | 61 | 42 | 1.33 | 3.7
31 | AGYYGCKGPPTFECQWMGT [330-F05 peptide-displaying phage (SEQ ID NO: 049)] | 51 | 27 | 1.33 | 13.8
32 | AGQYLCTQAALGCPEWGT [465-E11 peptide-displaying phage (SEQ ID NO: 029)] | 33 | 124 | 1.23 | 4.3
